Consider 1 molecule from patent US20250277199, “NOVEL CRISPR-CAS NUCLEASES FROM METAGENOMES” (Brain Biotech AG, published 2025).

The target of this series is T1, BMC11 (uncultured bacterium (metagenome)).
T1 chain: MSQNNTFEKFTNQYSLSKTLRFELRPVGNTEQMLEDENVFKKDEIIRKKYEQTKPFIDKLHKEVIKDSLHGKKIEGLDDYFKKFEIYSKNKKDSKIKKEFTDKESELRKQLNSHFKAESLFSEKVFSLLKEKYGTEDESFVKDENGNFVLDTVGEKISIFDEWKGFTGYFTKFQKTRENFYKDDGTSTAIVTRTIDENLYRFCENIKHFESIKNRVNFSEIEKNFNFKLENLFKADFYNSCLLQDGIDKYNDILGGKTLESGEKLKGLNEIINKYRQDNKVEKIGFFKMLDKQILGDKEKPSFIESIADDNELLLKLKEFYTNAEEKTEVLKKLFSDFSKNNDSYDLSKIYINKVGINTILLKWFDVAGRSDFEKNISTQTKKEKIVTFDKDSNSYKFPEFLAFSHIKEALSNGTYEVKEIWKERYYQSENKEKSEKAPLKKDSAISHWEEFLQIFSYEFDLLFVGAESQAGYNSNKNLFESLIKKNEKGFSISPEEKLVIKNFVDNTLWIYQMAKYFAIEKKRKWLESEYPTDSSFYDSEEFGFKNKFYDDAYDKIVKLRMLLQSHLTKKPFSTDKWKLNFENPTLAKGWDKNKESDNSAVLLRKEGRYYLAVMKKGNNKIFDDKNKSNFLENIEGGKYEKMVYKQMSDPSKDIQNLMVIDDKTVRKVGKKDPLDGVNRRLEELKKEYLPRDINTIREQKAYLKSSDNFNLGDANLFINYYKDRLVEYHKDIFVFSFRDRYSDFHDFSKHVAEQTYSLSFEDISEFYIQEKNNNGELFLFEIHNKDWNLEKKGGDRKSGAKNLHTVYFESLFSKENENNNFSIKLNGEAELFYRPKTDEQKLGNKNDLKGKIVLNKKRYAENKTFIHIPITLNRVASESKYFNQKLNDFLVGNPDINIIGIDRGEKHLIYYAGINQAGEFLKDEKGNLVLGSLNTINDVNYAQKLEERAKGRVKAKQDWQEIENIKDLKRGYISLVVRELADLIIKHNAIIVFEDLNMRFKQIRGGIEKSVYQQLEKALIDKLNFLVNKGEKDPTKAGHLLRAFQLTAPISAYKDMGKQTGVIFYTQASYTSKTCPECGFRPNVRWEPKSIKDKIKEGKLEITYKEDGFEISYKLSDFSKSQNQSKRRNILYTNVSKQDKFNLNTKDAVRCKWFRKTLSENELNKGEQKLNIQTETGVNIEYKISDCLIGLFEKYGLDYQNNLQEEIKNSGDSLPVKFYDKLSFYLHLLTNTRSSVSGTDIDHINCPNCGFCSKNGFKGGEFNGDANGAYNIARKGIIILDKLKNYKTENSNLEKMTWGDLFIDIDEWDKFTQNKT
Description: cell_activity; PAM not stated; E. coli depletion, 30 C. A digest of the protocol:
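E. coli carrying arabinose-induced (0.2%) BMC nuclease, grown at 30° C., made electrocompetent and electroporated with 50-100 ng plasmid carrying gRNA against malQ. Transformants plated on selective M9-glucose agar with kanamycin/ampicillin (± nourseothricin), and growth scored after 48 h at 30° C.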

B1: malQ gRNA (BMC stem-loop + 24 nt spacer) ; malQ protospacer (ssRNA ; dsDNA)
RNA: GAUUUCUACUAUUGUAGAUGUGGCGGUACGUUGAUGCAUCGCG
DNA 1: GTGGCGGTACGTTGATGCATCGCG
DNA 2: CGCGATGCATCAACGTACCGCCAC
The molecule B1 came in with an activity greater than 99.9 % colony reduction.
